Laboratory results published in PMC7058448.

Biological target: gp120-gp41 protomer of cleaved gp160, HIV-1 isolate 92UG037.8 (HIV-1 isolate 92UG037.8 (clade A))
Experiment: cryo-EM structure

gp120-gp41 protomer of cleaved gp160, HIV-1 isolate 92UG037.8 (complex)
stoichiometry N: 3
